Measured values published in patent US20250026836A1 (UCB, published 2025).

Key:
[1] = target: T1, HLA-G naturally expressed on human choriocarcinoma trophoblastic JEG3 cells (human, UniProt P17693 25-338; P61769 21-119); assay: flow cytometry on JEG3 WT cells, IgG1 100-0.05 nM
T1 construct: whole, on cells; also called JEG3 WT

[2] = target: T2, HLA-G wild type, membrane-bound, co-expressed with B2m on transfected cells (HEK293 / HCT116) (human, UniProt P17693 25-338; P61769 21-119); assay: flow cytometry, blocking of ILT4rbFc binding to HLA-G/B2m HCT116 cells
T2 construct: Same construct transiently expressed on HEK293 (Expi293) or HCT116 cells; the cell line is named under assay; also called HLA-G WT; HEK-HLAG

[3] = target: T1, HLA-G naturally expressed on human …; assay: flow cytometry, blocking of ILT2rbFc binding to JEG3 cells
[4] = target: HLA-A consensus sequence, co-expressed with B2m on HEK293 cells (human, UniProt P04439 25-365; P61769 21-119); assay: flow cytometry on HEK293 cells transfected with HLA-A consensus/B2m
[5] = target: HLA-B consensus sequence, co-expressed with B2m on HEK293 cells (human, UniProt P01889 25-362 at identity 0.96); P61769 21-119); assay: flow cytometry on HEK293 cells transfected with HLA-B consensus/B2m
[6] = target: HLA-F consensus sequence, co-expressed with B2m on HEK293 cells (human, UniProt P30511 22-346; P61769 21-119); assay: flow cytometry on HEK293 cells transfected with HLA-F consensus/B2m
[7] = target: HLA-C consensus sequence, co-expressed with B2m on HEK293 cells (human, UniProt P10321 25-366; P61769 21-119); assay: flow cytometry on HEK293 cells transfected with HLA-C consensus/B2m
[8] = target: HLA-E consensus sequence, co-expressed with B2m on HEK293 cells (human, UniProt P13747 22-358; P61769 21-119); assay: flow cytometry on HEK293 cells transfected with HLA-E consensus/B2m
[9] = target: T1, HLA-G naturally expressed on human …; assay: flow cytometry, blocking of ILT2rbFc binding to JEG3 cells, large volume
[10] = target: human HLA-G and β2 microglobulin stably expressed on the HLAG-β2m-Reh cell line (human, UniProt P17693 25-338; P61769 21-119); assay: cell-based or functional assay
[11] = target: T1, HLA-G naturally expressed on human …; assay: flow cytometry on JEG3 cells, 1.5 ml IgG solution, geometric mean of three independent assays; geometric mean of three independent assays
[12] = target: T2, HLA-G wild type, membrane-bound, …; assay: flow cytometry on HEK293 cells transfected with HLA-G/B2m
[13] = target: T2, HLA-G wild type, membrane-bound, …; assay: flow cytometry, blocking of ILT2rbFc binding to HLA-G/B2m HEK293 cells
[14] = target: T3, Human HLA-G ECD + B2m (soluble, AVItev10His tag) (human); assay: SPR, 25 C, hIgG1 captured via anti-human Fc, HLA-G ECD+B2m titrated from 50 nM, another assay
T3 construct: also called soluble HLA-G

[15] = target: T3, Human HLA-G ECD + B2m (soluble, …); assay: SPR, 25 C, hIgG1 captured via anti-human Fc, HLA-G ECD+B2m 50 nM as analyte, first experiment
[16] = target: T1, HLA-G naturally expressed on human …; assay: flow cytometry on JEG3 cells, 1.5 ml IgG1 solution, 10-0.0005 nM
[17] = target: T3, Human HLA-G ECD + B2m (soluble, …); assay: SPR, 25 C, hIgG1 captured via anti-human Fc, HLA-G ECD+B2m titrated from 50 nM
[18] = target: T3, Human HLA-G ECD + B2m (soluble, …); assay: SPR, 25 C, hIgG1 captured via anti-human Fc, HLA-G ECD+B2m 50 nM as analyte, second experiment

Row | EC50 [1] | IC50 [2] | IC50 [3] | binding result [4] | binding result [5] | binding result [6] | binding result [7] | binding result [8] | IC50 [9] | EC50 (nM) of CDC, lot 1 [10] | EC50 (nM) of CDC, lot 2 [10] | EC50 (nM) of CDC, lot 3 [10] | EC50 [11] | EC50 [12] | IC50 [13] | Kd [14] | Kd [15] | Kd [16] | Kd [17] | Kd [18] | Binder
1 | 0.2 nM | 1.38 nM | 0.51 nM | no binding (tested: IgG up to 100 nM) | no binding (tested: IgG up to 100 nM) | no binding (tested: IgG up to 100 nM) | no binding (tested: IgG up to 100 nM) | no binding (tested: IgG up to 100 nM) | 0.021 nM | 2.51 nM | 3.29 nM | 3.7 nM | 0.021 nM | 0.92 nM | 0.83 nM | 4.4 nM |  |  |  |  | Afucosylated HLA-G02 (antibody, human IgG1, kappa, afucosylated IgG1 (produced in FUT8 knock-out CHO-SXE cells), also called aF HLA-G02; Afucosylated HLA-02) heavy: not shown light: AIVLTQSPSSLSASVGDRVTITCQASQSIYSYLSWYQQKPGKAPKLLIYKASTLASGVPSRFSGSGSGTDFTLTISSLQPEDFATYYCQNHWNVGGNGWPFGGGTKVEIKRTVAAPSVFIFPPSDEQLKSGTASVVCLLNNFYPREAKVQWKVDNALQSGNSQESVTEQDSKDSTYSLSSTLTLSKADYEKHKVYACEVTHQGLSSPVTKSFNRGEC
2 | 0.43 nM | 1.31 nM | 0.53 nM | no binding (tested: IgG up to 100 nM) | no binding (tested: IgG up to 100 nM) | no binding (tested: IgG up to 100 nM) | no binding (tested: IgG up to 100 nM) | no binding (tested: IgG up to 100 nM) |  |  |  |  |  | 1.65 nM | 1.37 nM | 4.3 nM | 4.78 nM | 0.02 nM | 5.09 nM | 5.42 nM | HLA-G02 (humanised VR12389gL2gH16 IgG1, conventional i.e. fucosylated) (antibody, also called conventional HLA-G02) heavy: not shown light: AIVLTQSPSSLSASVGDRVTITCQASQSIYSYLSWYQQKPGKAPKLLIYKASTLASGVPSRFSGSGSGTDFTLTISSLQPEDFATYYCQNHWNVGGNGWPFGGGTKVEIKRTVAAPSVFIFPPSDEQLKSGTASVVCLLNNFYPREAKVQWKVDNALQSGNSQESVTEQDSKDSTYSLSSTLTLSKADYEKHKVYACEVTHQGLSSPVTKSFNRGEC
